From patent US20200123264A1 (Regeneron, published 2020)

T1: recombinant human LEPR extracellular domain expressed with a C-terminal mouse IgG2a Fc tag (human)
T1 construct: Dimeric construct; also called hLEPR.mFc; hLEPR-mFc
T1 chain: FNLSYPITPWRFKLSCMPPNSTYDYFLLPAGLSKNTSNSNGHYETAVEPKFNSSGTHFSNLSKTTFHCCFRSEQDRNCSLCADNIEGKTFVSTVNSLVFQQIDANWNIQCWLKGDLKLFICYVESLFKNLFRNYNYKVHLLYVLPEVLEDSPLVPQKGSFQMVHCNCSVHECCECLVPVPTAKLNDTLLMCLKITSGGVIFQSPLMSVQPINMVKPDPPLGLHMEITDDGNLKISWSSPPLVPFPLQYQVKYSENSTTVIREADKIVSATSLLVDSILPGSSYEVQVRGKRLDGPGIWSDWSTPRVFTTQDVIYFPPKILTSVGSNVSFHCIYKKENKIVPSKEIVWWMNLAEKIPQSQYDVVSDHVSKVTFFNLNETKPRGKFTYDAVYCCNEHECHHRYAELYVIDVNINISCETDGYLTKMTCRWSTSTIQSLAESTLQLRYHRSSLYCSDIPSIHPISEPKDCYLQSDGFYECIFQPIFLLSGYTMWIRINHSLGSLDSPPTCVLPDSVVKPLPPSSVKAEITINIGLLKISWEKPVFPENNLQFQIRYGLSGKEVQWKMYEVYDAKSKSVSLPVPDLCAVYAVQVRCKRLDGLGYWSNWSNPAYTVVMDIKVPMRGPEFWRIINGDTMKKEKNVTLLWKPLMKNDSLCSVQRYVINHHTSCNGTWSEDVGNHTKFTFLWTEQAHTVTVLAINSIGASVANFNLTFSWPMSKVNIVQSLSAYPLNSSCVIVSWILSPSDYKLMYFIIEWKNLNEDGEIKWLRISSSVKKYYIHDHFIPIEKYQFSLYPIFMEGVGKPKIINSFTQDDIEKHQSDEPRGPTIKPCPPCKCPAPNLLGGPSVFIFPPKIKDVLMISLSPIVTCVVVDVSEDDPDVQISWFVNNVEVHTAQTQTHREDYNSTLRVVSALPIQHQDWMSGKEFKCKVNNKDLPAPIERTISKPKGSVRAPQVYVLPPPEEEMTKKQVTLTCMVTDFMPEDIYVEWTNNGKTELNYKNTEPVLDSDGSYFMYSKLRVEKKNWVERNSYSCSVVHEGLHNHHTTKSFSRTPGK

B1: H4H18437P2 (antibody, human IgG4, V domains shown)
VH: QVQLVESGGGVVQPGRSLRLSCAASGFTFSSYGIHWVRQAPGKGLEWVAVISYDGNNKYYADSVKGRFTISRDNSKNTLYLQMNSLRAEDTAVYYCAKDLFLEWLFHGMGVWGQGTTVTVSS
VL: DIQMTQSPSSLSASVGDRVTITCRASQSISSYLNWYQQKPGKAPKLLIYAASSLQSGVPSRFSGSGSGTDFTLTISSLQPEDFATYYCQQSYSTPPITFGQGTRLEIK
notes: H4H prefix: human IgG4 Fc
B2: H4H18462P2 (antibody, human IgG4, V domains shown)
VH: EVQLVESGGDLVQPGRSLRLSCAASGFTFSSFAMSWVRQAPGRGLEWVSSLSDSGDNTYYADSVKGRFTISRDNSKNTLYLQMNNLRAEDTAVYYCAKDLFSGWLFHGFDVWGQGTMVTVSS
VL: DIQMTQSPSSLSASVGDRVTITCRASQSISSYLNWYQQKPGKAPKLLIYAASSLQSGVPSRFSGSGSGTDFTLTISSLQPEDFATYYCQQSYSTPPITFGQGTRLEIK
notes: H4H prefix: human IgG4 Fc
B3: H4H18440P2 (antibody, human IgG4, V domains shown)
VH: QVQLVESGGGMVKPGGSLRLSCAASGFTFSDYYMSWIRQAPGKGLEWISHISITGSTIYYADSVKGRFTISRDNAKNSLYLEMNRLRDEDTAVYYCTRDEPDIVLVRYGMDVWGQGTTVTVSS
VL: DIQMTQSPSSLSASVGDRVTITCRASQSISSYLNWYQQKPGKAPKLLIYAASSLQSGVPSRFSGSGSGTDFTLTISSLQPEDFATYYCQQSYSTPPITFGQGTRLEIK
notes: H4H prefix: human IgG4 Fc
B4: H4H18464P2 (antibody, human IgG4, V domains shown)
VH: QVQLVQSGPEVKKPGASVKVSCKGSGYTFSWYGISWIRQAPGHGLEWMGWISASSGNTRFAQKVQGRLTMTTDTSTSTAYMELRSLRSDDTAVYYCARTGTRPFDYWGQGTLVTVSS
VL: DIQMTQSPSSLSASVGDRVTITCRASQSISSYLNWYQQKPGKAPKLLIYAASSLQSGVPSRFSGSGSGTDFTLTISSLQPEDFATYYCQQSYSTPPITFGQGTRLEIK
notes: H4H prefix: human IgG4 Fc
B5: H4H17322P2 (antibody, human IgG4, V domains shown)
VH: QLQLQESGPGLVKPSETLSLTCTVSGASISSSRFYGGWIRQPPGKGLEWIGDIYYSGNTYYNPSLQSRVTISVDTSKNQFSLKLSSVTAADTAVYYCARHLMITFGGLIVEGFDIWGQGTMVTVSS
VL: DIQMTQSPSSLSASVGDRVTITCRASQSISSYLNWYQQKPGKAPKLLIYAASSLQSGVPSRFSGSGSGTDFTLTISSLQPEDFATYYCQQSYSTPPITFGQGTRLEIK
notes: H4H prefix: human IgG4 Fc
B6: H4H18457P2 (antibody, human IgG4, V domains shown)
VH: EVQLVESGGSVVRPGESLRLSCAASGFTFDDYGMSWVRQAPGKGLEWVSGISWNGGITVYADSVKGRFTVSRDNAKNSLYLQMNSLRAEDTALYHCARARYGGADYWGQGTLVTVSS
VL: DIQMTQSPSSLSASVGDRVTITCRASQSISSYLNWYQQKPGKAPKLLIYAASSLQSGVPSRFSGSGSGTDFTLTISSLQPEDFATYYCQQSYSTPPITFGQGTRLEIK
notes: H4H prefix: human IgG4 Fc

These binders were tested against T2, recombinant human LEPR extracellular domain expressed with a C-terminal myc-myc-hexahistidine tag (human, UniProt P48357 22-839) (assay: SPR, mAb captured, 37 C).
T2 construct: Monomeric construct; also called hLEPR.MMH; hLEPR-MMH
Procedure: (§1) Equilibrium dissociation constants (KD values) for antigen binding to purified anti-LEPR monoclonal antibodies of the invention were determined using a real-time surface plasmon resonance biosensor using a Biacore 4000 instrument. All binding studies were performed in running buffer containing 10 mM HEPES, 150 mM NaCl, 3 mM EDTA, and 0.05% v/v Surfactant Tween-20, pH 7.4 (HBS-ET running buffer) at 25° C. and 37° C. The Biacore sensor surface was first derivatized by amine coupling with a monoclonal mouse anti-human Fc antibody (GE, # BR-1008-39) to the capture anti-LEPR monoclonal antibodies. The LEPR reagents tested for binding to the anti-LEPR monoclonal antibodies included recombinant human LEPR extracellular domain expressed with a C-terminal myc-myc-hexahistidine tag (hLEPR.MMH; SEQ ID NO:90), recombinant cynomolgus monkey LEPR extracellular domain expressed with a C-terminal myc-myc-hexahistidine tag (mfLEPR.MMH; SEQ ID NO:93), recombinant mouse LEPR extracellular domain expressed with a C-terminal myc-myc-hexahistidine tag (mLEPR.MMH; SEQ ID NO:94), recombinant rat LEPR extracellular domain expressed with a C-terminal myc-myc-hexahistidine tag (rLEPR.MMH; SEQ ID NO:95), and recombinant human LEPR extracellular domain expressed with a C-terminal mouse IgG2a Fc tag (hLEPR.mFc; SEQ ID NO:91). LEPR constructs that include MMH tags are monomeric LEPR constructs, and LEPR constructs including an mFc tag are dimeric LEPR constructs. […] The dissociation of monoclonal antibody bound LEPR reagent was monitored for 10 minutes in HBS-ET running buffer. Kinetic association (10 and dissociation (10 rate constants were determined by fitting the real-time binding sensorgrams to a 1:1 binding model with mass transport limitation using Scrubber 2.0c curve-fitting software. Binding dissociation equilibrium constants (KD) and dissociative half-lives (t½) were calculated from the kinetic rate constants as: […]

Row | 100 nM hLEPR-MMH Bound (RU) | Kd [nM] | koff [s⁻¹] | kon [M⁻¹ s⁻¹] | t½ [min] | Binder
1 | 55 | 77.6 | 0.00884 | 114000 | 1.3 | B1
2 | 31 | 248 | 0.0114 | 45800 | 1 | B2
3 | 95 | 27.3 | 0.00173 | 63400 | 7 | B3
4 | 68 | 20.5 | 0.00315 | 154000 | 3.7 | B4
5 | 99 | 11.7 | 0.000812 | 69500 | 14 | B5
6 | 108 | 24.8 | 0.00855 | 345000 | 1.4 | B6

Each binder was assayed against T3, recombinant cynomolgus monkey LEPR extracellular domain expressed with a C-terminal myc-myc-hexahistidine tag (cynomolgus monkey, UniProt Q9MYL0 22-837 (rhesus entry)) (assay: SPR, mAb captured, 37 C).
T3 construct: Monomeric construct; also called mfLEPR.MMH; mfLEPR-MMH
Procedure: as §1

Row | 100 nM mfLEPR-MMH Bound (RU) | Kd [nM] | koff [s⁻¹] | kon [M⁻¹ s⁻¹] | t½ [min] | Binder
7 | 58 | 147 | 0.0127 | 86900 | 0.9 | B1
8 | 28 | 261 | 0.0337 | 129000 | 0.3 | B2
9 | 66 | 101 | 0.00724 | 71500 | 1.6 | B3
10 | 13 | 215 | 0.00841 | 39200 | 1.4 | B4
11 | 142 | 7.72 | 0.0011 | 143000 | 10 | B5
12 | 117 | 30 | 0.0104 | 347000 | 1.1 | B6

Each binder was assayed against T4, recombinant rat LEPR extracellular domain expressed with a C-terminal myc-myc-hexahistidine tag (rat, UniProt Q62959 22-839) (assay: SPR, mAb captured, 37 C).
T4 construct: Monomeric construct; also called rLEPR.MMH; rLEPR-MMH
Procedure: as §1

T4 sequence (Q62959 other isoform, or with tags, fused parts or gaps): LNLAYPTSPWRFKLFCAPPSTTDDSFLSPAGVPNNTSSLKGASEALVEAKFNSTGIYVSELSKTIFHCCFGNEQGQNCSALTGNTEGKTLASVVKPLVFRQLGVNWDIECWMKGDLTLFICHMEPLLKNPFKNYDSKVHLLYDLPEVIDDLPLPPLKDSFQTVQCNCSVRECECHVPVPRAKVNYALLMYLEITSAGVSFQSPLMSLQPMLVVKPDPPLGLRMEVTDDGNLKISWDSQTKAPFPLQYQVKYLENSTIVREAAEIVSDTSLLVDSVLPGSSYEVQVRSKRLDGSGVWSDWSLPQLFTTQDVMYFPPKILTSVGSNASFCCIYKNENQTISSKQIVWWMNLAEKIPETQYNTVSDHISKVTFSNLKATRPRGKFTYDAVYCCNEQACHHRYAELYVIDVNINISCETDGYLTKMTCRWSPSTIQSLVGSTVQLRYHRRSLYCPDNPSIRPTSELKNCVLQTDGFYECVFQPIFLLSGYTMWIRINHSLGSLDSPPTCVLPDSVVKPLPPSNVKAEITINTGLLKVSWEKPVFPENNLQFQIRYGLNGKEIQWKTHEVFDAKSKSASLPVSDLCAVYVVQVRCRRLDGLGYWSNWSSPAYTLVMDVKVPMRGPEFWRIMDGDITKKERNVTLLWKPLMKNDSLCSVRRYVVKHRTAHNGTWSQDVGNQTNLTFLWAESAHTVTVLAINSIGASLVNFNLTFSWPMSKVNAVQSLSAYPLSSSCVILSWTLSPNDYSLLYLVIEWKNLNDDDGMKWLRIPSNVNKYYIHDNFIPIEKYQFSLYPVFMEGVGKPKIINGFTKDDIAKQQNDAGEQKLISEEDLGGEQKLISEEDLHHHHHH

Row | 100 nM rLEPR-MMH Bound (RU) | Kd [nM] | koff [s⁻¹] | kon [M⁻¹ s⁻¹] | t½ [min] | Binder
13 | 10 | 629 | 0.0193 | 30700 | 0.6 | B1
14 | 0 | – | – | – | – | B3
15 | 1 | – | – | – | – | B4
16 | 9 | 352 | 0.0328 | 93200 | 0.4 | B5
17 | 16 | 580 | 0.0175 | 30200 | 0.7 | B6

Molecular target: T1, recombinant human LEPR extracellular …
Assay: SPR, mAb captured, 37 C
Procedure: as §1

Row | 100 nM hLEPR-mFc Bound (RU) | Kd [nM] | koff [s⁻¹] | kon [M⁻¹ s⁻¹] | t½ [min] | Binder
18 | 88 | 4.3 | 0.000556 | 129000 | 21 | B1
19 | 84 | 4.26 | 0.000543 | 128000 | 21 | B2
20 | 181 | 0.527 | 0.000112 | 212000 | 103 | B3
21 | 105 | 1.28 | 0.000517 | 404000 | 22 | B4
22 | 105 | 3.31 | 0.00044 | 133000 | 26 | B5
23 | 166 | 1.27 | 0.000704 | 556000 | 16 | B6

Each binder was assayed against T5, recombinant mouse LEPR extracellular domain expressed with a C-terminal myc-myc-hexahistidine tag (mouse, UniProt P48356 22-839) (assay: SPR, mAb captured, 37 C).
T5 construct: Monomeric construct; also called mLEPR.MMH; mLEPR-MMH
Procedure: as §1

T5 sequence (P48356 other isoform, or with tags, fused parts or gaps): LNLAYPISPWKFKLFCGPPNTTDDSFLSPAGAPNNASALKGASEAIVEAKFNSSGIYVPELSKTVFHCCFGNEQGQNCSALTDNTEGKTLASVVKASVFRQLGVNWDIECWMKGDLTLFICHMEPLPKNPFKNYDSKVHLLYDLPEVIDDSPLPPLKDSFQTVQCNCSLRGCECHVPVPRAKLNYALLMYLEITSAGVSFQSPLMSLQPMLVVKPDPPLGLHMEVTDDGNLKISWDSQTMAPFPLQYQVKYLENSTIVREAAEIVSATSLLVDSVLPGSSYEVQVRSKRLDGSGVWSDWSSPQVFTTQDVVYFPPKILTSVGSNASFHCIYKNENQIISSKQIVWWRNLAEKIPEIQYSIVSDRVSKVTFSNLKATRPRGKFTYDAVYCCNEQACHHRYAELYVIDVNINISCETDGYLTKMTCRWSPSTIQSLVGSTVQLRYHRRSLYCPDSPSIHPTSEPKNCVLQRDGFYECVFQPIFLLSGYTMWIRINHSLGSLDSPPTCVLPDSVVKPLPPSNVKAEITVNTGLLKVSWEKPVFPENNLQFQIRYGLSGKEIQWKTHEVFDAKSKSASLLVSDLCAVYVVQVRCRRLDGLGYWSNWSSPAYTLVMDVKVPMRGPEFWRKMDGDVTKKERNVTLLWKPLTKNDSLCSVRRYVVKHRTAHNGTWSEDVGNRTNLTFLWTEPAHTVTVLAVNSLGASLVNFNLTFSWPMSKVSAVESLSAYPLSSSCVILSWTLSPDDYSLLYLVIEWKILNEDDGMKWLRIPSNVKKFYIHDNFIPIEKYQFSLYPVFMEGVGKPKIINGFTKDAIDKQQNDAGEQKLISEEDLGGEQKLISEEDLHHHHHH

Row | 100 nM mLEPR-MMH Bound (RU) | Kd [nM] | koff [s⁻¹] | kon [M⁻¹ s⁻¹] | t½ [min] | Binder
24 | 6 | 1160 | 0.0133 | 11500 | 0.9 | B1
25 | -1 | – | – | – | – | B3
26 | 1 | – | – | – | – | B4
27 | -1 | – | – | – | – | B5
28 | -1 | – | – | – | – | B6

The binders below were run against T5, recombinant mouse LEPR extracellular … (assay: SPR, mAb captured, 25 C).
Procedure: as §1

Row | 100 nM mLEPR-MMH Bound (RU) | Kd [nM] | koff [s⁻¹] | kon [M⁻¹ s⁻¹] | t½ [min] | binding result | Binder
29 | 6 | 264 | 0.00418 | 15800 | 2.8 | – | B1
30 | 2 | – | – | – | – | no binding (tested: 100 nM) | B2
31 | -3 | – | – | – | – | – | B3
32 | -1 | – | – | – | – | – | B4
33 | 0 | – | – | – | – | – | B5
34 | 1 | – | – | – | – | – | B6

Each binder was assayed against T6, extracellular domain portion of LEPR protein expressed with a C-terminal human Fc tag (human) (assay: competition ELISA, 500 nM Ab, 10 nM hLEPR-hFc binding to coated hLeptin).
T6 construct: Dimeric construct; also called hLEPR.hFc; hLEPR-hFc
Procedure: These antibody-protein or protein-protein complexes were then incubated for 1.5 hour at room temperature (RT). […] Samples were developed with a TMB solution (BD Biosciences, #555214; substrate A and B mixed at 1:1 ratio as per manufacturer's instructions) to produce a colorimetric reaction and then neutralized with 1M sulfuric acid before measuring absorbance at 450 nm on a Victor X5 plate reader. Data analysis was performed using a sigmoidal dose-response model within Prism™ software (Graph Pad).

Row | % blockade [%] | Binder
35 | 9 | B1
36 | 14 | B2
37 | 3 | B3
38 | -5 | B4
39 | 13 | B5
40 | 4 | B6
